The results in this text go back to patent publication US20190309059A1 (SHANGHAI PHARMAEXPLORER, published 2019).

For orientation: Kd means the free concentration of one partner at which half of the binding sites on the other are occupied at equilibrium, for simple one-to-one binding. Read a low Kd as a tighter complex. A word on the koff: it is a measure of how fast the partners let go of each other. Broadly, the kon is the rate constant with which the complex forms. Usually EC50 (read off the curve) stands for the concentration that produces a half-maximal response. Read a low EC50 (read off the curve) as an effect from little substance.

In test [1] the target is cynomolgus IL-13 (purchased from sino biological) (cynomolgus) (UniProt Q0PW92). Nature of the test: ELISA, cynomolgus IL-13; antibody at 0.11 nM. (In an ELISA, binding on a coated surface is turned into a signal by an enzyme label.)
Sequence of cynomolgus IL-13 (purchased from sino biological) (cynomolgus) (Q0PW92 entry or part of it): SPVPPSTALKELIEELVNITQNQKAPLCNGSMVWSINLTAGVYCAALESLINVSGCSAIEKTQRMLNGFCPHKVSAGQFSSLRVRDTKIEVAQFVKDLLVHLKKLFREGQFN
For test [2] the target is unchanged. As to the kind of experiment: ELISA, cynomolgus IL-13; antibody at 13.3 nM.
The target is the same in test [3]. As to the kind of experiment: ELISA, cynomolgus IL-13; antibody at 13.33 nM.
Test [4] has the same target. Nature of the test: ELISA, cynomolgus IL-13; antibody at 0.107 nM.
In test [5] the target is his-labeled human IL-13 (immunogen A) (human) (UniProt P35225). Nature of the test: ELISA, biotin-immunogen A; antibody at 0.53 nM.
Test [6] shares this target. Nature of the test: ELISA, biotin-immunogen A; antibody at 2.67 nM.
The target in test [7] is his-labeled human IL-13R130Q variant (human) (UniProt P35225). As to the kind of experiment: ELISA, IL-13R130Q variant; antibody at 0.53 nM.
Sequence of his-labeled human IL-13R130Q variant (human) (P35225 other isoform, or with tags, fused parts or gaps mutant): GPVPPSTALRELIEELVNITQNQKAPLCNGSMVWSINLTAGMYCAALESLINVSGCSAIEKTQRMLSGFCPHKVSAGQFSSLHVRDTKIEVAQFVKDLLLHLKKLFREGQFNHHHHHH
Test [8] deals with his-labeled human IL-13 (immunogen A) (human) (UniProt P35225). Nature of the test: ELISA, biotin-immunogen A; antibody at 0.000 nM.
Test [9] has the same target. As to the kind of experiment: ELISA, biotin-immunogen A; antibody at 0.001 nM.
Test [10] addresses his-labeled human IL-13R130Q variant (human) (UniProt P35225). As to the kind of experiment: ELISA, IL-13R130Q variant; antibody at 0.021 nM.
The target in test [11] is his-labeled human IL-13 (immunogen A) (human) (UniProt P35225). Nature of the test: ELISA, biotin-immunogen A; antibody at 0.00 nM (6th dilution).
The target is the same in test [12]. Nature of the test: ELISA, biotin-immunogen A; antibody at 0.00 nM (as printed, 7th dilution).
The target is the same in test [13]. Nature of the test: ELISA, biotin-immunogen A; antibody at 0.00 nM (8th dilution).
For test [14] the target is unchanged. Nature of the test: SPR (Biacore).
Test [15] shares this target. Nature of the test: ELISA, biotin-immunogen A; antibody at 13.33 nM.
Test [16] concerns the target his-labeled human IL-13R130Q variant (human) (UniProt P35225). As to the kind of experiment: ELISA, IL-13R130Q variant; antibody at 66.67 nM.
In test [17] the target is his-labeled human IL-13 (immunogen A) (human) (UniProt P35225). As to the kind of experiment: SPR (Biacore), antibody captured by anti-human Fc, immunogen A as analyte. (SPR reads the build-up and loss of mass on a sensor chip optically.)
Test [18] has as its target his-labeled human IL-13R130Q variant (human) (UniProt P35225). Nature of the test: ELISA: IL-13R130Q variant on the plate, antibody titrated, HRP secondary antibody, OD450.
For test [19], the target named is his-labeled human IL-13 (immunogen A) (human) (UniProt P35225). Nature of the test: ELISA: biotin-labeled immunogen A on streptavidin plate, antibody titrated, HRP secondary antibody, OD450.
Test [20] has the same target. As to the kind of experiment: FACS blocking assay: antibody titrated with biotin-labeled immunogen A (20 ng/mL); blocked partner IL-13Ra2 on HEK293 clone 1A1; Alexa 488 streptavidin.
Test [21] has the same target. Nature of the test: FACS blocking assay: antibody titrated with biotin-labeled immunogen A (30 ng/mL); blocked partner IL-13Ra1/IL-4Ra on HEK293 clone 4C1; Alexa 488 streptavidin.
The target of test [22] is cynomolgus IL-13 (purchased from sino biological) (cynomolgus) (UniProt Q0PW92). As to the kind of experiment: ELISA, cynomolgus IL-13; antibody at 66.67 nM.
Test [23] deals with his-labeled human IL-13 (immunogen A) (human) (UniProt P35225). Nature of the test: ELISA, biotin-immunogen A; antibody at 0.004 nM.
The target is the same in test [24]. Nature of the test: ELISA, biotin-immunogen A; antibody at 0.021 nM.
Test [25] deals with T1, mouse IL-13 (purchased from sino biological) (mouse, UniProt P20109 19-131).
T1 chain: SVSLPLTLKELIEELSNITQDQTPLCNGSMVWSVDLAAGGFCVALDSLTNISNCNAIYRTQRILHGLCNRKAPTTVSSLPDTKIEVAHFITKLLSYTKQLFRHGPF
As to the kind of experiment: ELISA, mouse IL-13; antibody at 0.53 nM.

Test [26] concerns the target T1, mouse IL-13 (purchased from sino …). As to the kind of experiment: ELISA, mouse IL-13; antibody at 2.67 nM.
Test [27] has the same target. As to the kind of experiment: ELISA, mouse IL-13; antibody at 0.000 nM.
The target is the same in test [28]. As to the kind of experiment: ELISA, mouse IL-13; antibody at 0.001 nM.
Test [29] has the same target. Nature of the test: ELISA, mouse IL-13; antibody at 13.33 nM.
The target of test [30] is cynomolgus IL-13 (purchased from sino biological) (cynomolgus) (UniProt Q0PW92). Nature of the test: ELISA: cynomolgus IL-13 on the plate, antibody titrated, HRP secondary antibody, OD450.
Test [31] shares this target. As to the kind of experiment: ELISA, cynomolgus IL-13; antibody at 333.3 nM.

“And” between values parts separate entries of the source, which are not always exact repeats. Equal values may be shown once.

In the case of IgG control (mouse IgG) (antibody), the OD450 nm is 0.07 in test [1]; 0.1 in [2]; 0.21 in test [3]; 0.059 in test [4]; 0.07 and 0.06 in test [5]; 0.08 in test [6]. Moreover, the OD450 nm came out at 0.06 in test [7]; 0.05 in [8]; 0.05 in test [9]; 0.06 in test [10]; 0.08 in test [11]; 0.07 in test [12]. Also, the OD450 nm in [13] was 0.07.

B1: c35E2C3 (mouse-human chimeric IL-13 antibody) (antibody, V domains shown)
VH: EVQLQESGPGLAKPSQTLSLTCSVTGYSITSDYWNWIRKFPGNKLEYMGYISYNGNTYYNPSLKSQISITRDTSKNQLYLQLKSATTEDTATYYCARLAKWTWYFDIWGTGTTVTVSS
VL: DIQMNQSPSSLSASLGDTITITCHASQNINVWLSWYQQKPGSLPKLLIYKASDLHTGVPSRFSGSGSGTGFTLTISSLQPEDIATYYCQQGQSYPYTFGGGTKLEIK
Regarding B1, the OD450 nm stood at 3.1 in test [2]; 0.181 in test [4]; 1.63 in test [5]; 2.4 in test [6]; 2.4 in test [7]; 2.59 in test [15]. Further, the OD450 nm is 0.28 in test [10]; 3.4 in test [16]; 0.09 in test [11]; 0.07 in test [12]; 0.06 in [13]. Moreover, the figures for the Kd in test [14] and in test [17] were < 90 nM and 0.863 nM, respectively. For the same molecule, the dissociation rate constant (koff) in test [17] worked out at 0.00026 s⁻¹. Moreover, the on-rate (kon) in test [17] came to 300000 M⁻¹ s⁻¹. Besides, the EC50 (read off the curve) in [18] is 0.3 nM; in test [19] it was 0.4 nM. Moreover, the IC50 (read off the curve) in [20] came out at 0.3 nM; in [21], 0.5 nM.

B2: 29D9H8 (lead antibody, mouse hybridoma) (antibody, V domains shown)
VH: QVQLQQSGAELVRPGASVTLSCKASGYTFTDYEMHWVKQTPVHGLEWIGGIDPETGGTASNQKFKGKAILTADKSSSTAYMELRSLTSEDSAVYYCTSGDYFGGGPFAYWGQGTLVTVSA
VL: DIKMTQSPSSMYASLGERVTITCKASQDINSYLSWFQQKPGKSPKTLIYRANRLVDGVPSRFSGSGSGQDYSLTISSLDYEDMGIYYCLQYDEFPYTFGGGTKLEIK
notes: Mouse monoclonal antibody purified from hybridoma supernatant on Protein G
With B2, the OD450 nm in [1] came out at 1.24; in test [3], 2.46; in [22], 2.52; in [5], 1.4; in test [6], 1.61; in test [8], 0.06. Further, the OD450 nm in test [9] was 0.07; in [23], 0.12; in test [24], 0.34; in test [15] it was 1.6; in [25], 0.06; in test [26] it was 0.07. Moreover, the OD450 nm worked out at 0.07 in [27], 0.07 in test [28] and 0.09 in [29]. Moreover, the EC50 (read off the curve) in test [30] and in [19] was 0.1 nM each time. The IC50 (read off the curve) in test [20] is 0.2 nM; in test [21], 0.3 nM.

B3: c29D9H8 (mouse-human chimeric IL-13 antibody) (antibody, V domains shown)
VH: B2 VH
VL: B2 VL
Turning to B3, the OD450 nm was 3.5 in test [2]; 1.23 in test [4]; 3.7 in test [31]; 2.46 in [7]; 0.4 in [10]; 3.06 in test [16]. The Kd in test [14] is < 90 nM; in test [17] it was 0.0324 nM. In [17], this molecule had an off-rate constant (koff) of 0.000813 s⁻¹. The same molecule displayed a kon in [17] of 2.51e+07 M⁻¹ s⁻¹. Besides, the EC50 (read off the curve) in test [18] and in test [30] was 0.2 nM throughout. Moreover, the figures for the IC50 (read off the curve) in test [20] and in [21] were 0.2 nM and 0.5 nM, respectively.

B4: 28A2E11 (lead antibody, mouse hybridoma) (antibody, V domains shown)
VH: EVQLQQSGAELVKPGASVKLSCTASGFNIKDYYMHWVKQRTEQGLEWIGRIDPEDGETKYAPKFHDKATLTADTSSNTAYLQFSSLASEDTAVYYCTRYDYYGPFAYWGQGTLVTVSA
VL: QAVVTQESVLTTSPGETVTLTCRSSTGAVTTSNYANWVQEKPDHLFTGLIGGTNNRAPGVPARFSGSLIGDKAALTITGAQTEDEAIYFCALWYINHFIFGSGTKVTVL
notes: as for B2
Consider B4, for which the OD450 nm was 0.35 in test [1]; 1.78 in test [3]; 1.99 in [22]; 1.32 in test [5]; 1.69 in [6]; 0.05 in test [8]. For the same molecule, the OD450 nm in [9] came to 0.07; in test [23], 0.1; in [24] it was 0.28; in [15], 1.74; in [25], 0.07; in test [26], 0.08. Also, the OD450 nm was 0.07 in [27], 0.06 in test [28] and 0.08 in test [29]. The molecule also had an EC50 (read off the curve) in [19] of 0.2 nM. Moreover, the IC50 (read off the curve) in test [20] was determined as 0.6 nM; in test [21], 0.7 nM.

B5: c28A2E11 (mouse-human chimeric IL-13 antibody) (antibody, V domains shown)
VH: B4 VH
VL: B4 VL
Consider B5, for which the OD450 nm turned out to be 2.4 in test [2]; 0.183 in test [4]; 3.9 in [31]; 1.93 in test [5]; 2.6 in test [6]; 2.71 in test [15]. In addition, the results for the OD450 nm in test [11], in [12] and in test [13] were 0.1, 0.07 and 0.06, respectively. The Kd in test [14] is < 90 nM; in test [17], 7.98 nM. In addition, the koff in test [17] worked out at 0.00438 s⁻¹. The molecule further came in with an on-rate (kon) in [17] of 549000 M⁻¹ s⁻¹. The 50% effective concentration (EC50 (read off the curve)) in test [18] is 0.3 nM; in test [19], 0.2 nM. Moreover, the IC50 (read off the curve) in test [20] and in test [21] was 1 nM each time.
